Laboratory results from PMC6776472 (Biochemistry, 2018).
No end group written: not given here.

B1: pepMKK6mb (designed binder)
chain: RDLEVVAATPTSLLISWDAPAVTVRYYRITYGETGGNSPVQEFTVPGSKSTATISGLKPGVDYTITVYAVTGRPGLKIPSKPISINYRTEI

Key:
[1] = target: JNK1 (UniProt P45983 1-427); test: ITC
[2] = target: ERK2 (UniProt P28482 1-360); test: fluorescence polarisation
[3] = target: p38α (unphosphorylated, recombinant) (UniProt Q16539 1-360); test: fluorescence polarisation
p38α (unphosphorylated, recombinant), sequence (Q16539 whole entry): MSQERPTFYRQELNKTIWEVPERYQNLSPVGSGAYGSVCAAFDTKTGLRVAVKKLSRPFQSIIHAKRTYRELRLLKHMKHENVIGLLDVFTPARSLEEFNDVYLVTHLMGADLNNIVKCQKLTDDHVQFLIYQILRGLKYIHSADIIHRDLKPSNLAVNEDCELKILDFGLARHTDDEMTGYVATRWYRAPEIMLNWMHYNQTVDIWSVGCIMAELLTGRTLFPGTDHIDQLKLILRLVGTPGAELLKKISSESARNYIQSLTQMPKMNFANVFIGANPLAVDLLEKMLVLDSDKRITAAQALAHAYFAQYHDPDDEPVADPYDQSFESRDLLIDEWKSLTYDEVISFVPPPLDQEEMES

ERK2, sequence (P28482 whole entry): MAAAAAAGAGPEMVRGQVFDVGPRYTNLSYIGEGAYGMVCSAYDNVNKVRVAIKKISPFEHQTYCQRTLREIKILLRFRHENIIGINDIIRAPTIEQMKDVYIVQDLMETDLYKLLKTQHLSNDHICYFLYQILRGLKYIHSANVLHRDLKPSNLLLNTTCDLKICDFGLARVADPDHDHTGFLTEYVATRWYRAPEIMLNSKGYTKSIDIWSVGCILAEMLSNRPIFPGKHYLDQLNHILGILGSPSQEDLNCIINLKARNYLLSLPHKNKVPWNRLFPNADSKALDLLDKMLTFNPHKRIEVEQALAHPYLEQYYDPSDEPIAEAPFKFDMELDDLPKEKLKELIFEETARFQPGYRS
JNK1, sequence (P45983 whole entry): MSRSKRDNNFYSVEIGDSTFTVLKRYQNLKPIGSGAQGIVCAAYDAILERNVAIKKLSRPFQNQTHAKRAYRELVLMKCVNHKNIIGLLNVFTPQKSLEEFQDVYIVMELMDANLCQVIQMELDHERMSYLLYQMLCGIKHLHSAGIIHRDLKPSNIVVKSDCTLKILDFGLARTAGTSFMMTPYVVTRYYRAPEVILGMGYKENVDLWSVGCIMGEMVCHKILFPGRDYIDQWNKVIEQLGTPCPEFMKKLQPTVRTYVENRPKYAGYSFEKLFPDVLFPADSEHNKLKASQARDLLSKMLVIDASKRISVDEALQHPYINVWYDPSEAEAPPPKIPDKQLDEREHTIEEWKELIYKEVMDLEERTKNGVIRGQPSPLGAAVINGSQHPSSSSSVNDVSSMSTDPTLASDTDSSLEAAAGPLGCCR

Binder	Kd [1]	binding result [2]	Kd [3]
B1	> 100 µM		
{TAMRA}-GKKRNPGLKIPK [MKK6-derived 12-residue peptide, TAMRA-labeled]		binds	3.9 µM
